In patent publication US20030228309A1 (published 2003):

Tests used:
[1] = molecular target: T1, Biotinylated TRAIL (AM100200-Peprotech) (Homo sapiens (Human), UniProt P50591 114-281, biotinylated (sites not given)); assay: competition ELISA, soluble TR4 (TR4-Fc positive control) competes with plate-captured TR4-Fc for biotinylated TRAIL; assay 1
Protocol: (§1) Goat anti-human Fc was diluted to 0.1 micrograms/ml in coating buffer. The Immulon 4 microplate was coated with 100 microliters per well of the Goat anti-human Fc solution and incubated overnight at 4° C. The coating solution was decanted from the plate, and blocking solution was dispensed at 200 microliters per well. The plate was incubated at room temperature for 1 hour. After the 1 hour incubation period, the blocking solution was decanted from the plate and 1 microgram/mL of TR4-Fc was dispensed at 100 microliters/well and incubated for 2 hours at room temperature. After the incubation, the plate was washed five times manually using a Wheaton manifold.
(§2) Hybridoma supernatants were (previously) prepared in a low binding dilution plate using diluent. The supernatants were prepared in duplicate and were diluted from the stock concentration with 2.5 fold dilutions for the 7 subsequent wells. If a purified form of the antibody was available, the starting concentration was 5 micrograms/mL. The positive control (TR4-Fc) was diluted from 5 micrograms/mL. 100 microliters was transferred into the ELISA plate and pre-incubated for 30 minutes at room temperature. 20 microliters of biotinylated TRAIL was added at 5 micrograms/mL to the 100 gL of the supernatant and mixed. The combined 120 microliters incubated for 2 hours at RT. […]

[2] = molecular target: T1, Biotinylated TRAIL (AM100200-Peprotech); assay: competition ELISA, soluble TR4 (TR4-Fc positive control) competes with plate-captured TR4-Fc for biotinylated TRAIL; assay 2
Protocol: as §1, §2

T1 sequence (P50591 114-281 limits assumed): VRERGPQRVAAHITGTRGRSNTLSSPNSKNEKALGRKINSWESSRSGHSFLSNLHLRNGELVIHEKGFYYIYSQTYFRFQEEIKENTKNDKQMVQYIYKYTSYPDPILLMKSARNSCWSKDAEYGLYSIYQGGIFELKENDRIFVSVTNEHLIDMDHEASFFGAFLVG

IC50 [1]: 0.491 µg/mL | IC50 [2]: 0.284 µg/mL
B1: TR4-Fc fusion protein (Fc fusion)
chain: ATIKLHDQSIGTQQWEHSPLGELCPPGSHRSERPGACNRCTEGVGYTNASNNLFACLPCTACKSDEEERSPCTTTRNTACQCKPGTFRNDNSAEMCRKCSTGCPRGMVKVKDCTPWSDIECVHKESGNGHNI
notes: also called TR4 (in the form of Fc fusion protein); not shown: Fc region
